# Substitutions are numbered along the chain they refer to. No end group written: not given here.
# B1: IV-32B (designed binder)
# chain: VREVCSEQAEPGPCKALMKRWYFDVTEGKCAPFYYGGCYGNRNNFDTEEYCAAVCGSA
# B2: APPI, Alzheimer's amyloid β-protein precursor inhibitor (other)
# chain: VREVCSEQAETGPCRAMISRWYFDVTEGKCAPFFYGGCGGNRNNFDTEEYCMAVCGSA
# modifications: not fully specified (bridges); ends and bridges not checked
# B3: TF7I-C (designed binder)
# chain: B1 chain with K15R, M18I, K19L, Y34F
# modifications: ends and bridges not checked; cysteine pairing not given here
# B4: IV-49C (designed binder)
# chain: B1 chain with K15R, Y34I
# B5: IV-54C (designed binder)
# chain: B1 chain with K15R, Y34V
# Assays:
# [1] = molecular target: TF-FVIIa complex in the PT assay (full length TF on 293 cell membranes with the Factor VII/VIIa of normal … (human, UniProt P08709)); test: cell-based or functional assay
# [2] = molecular target: human Factor Xa (human, UniProt P00742); test: chromogenic enzyme inhibition assay, apparent Ki*
# [3] = molecular target: T1, human Factor XIIa (human, UniProt P00748); test: chromogenic enzyme inhibition assay, apparent Ki*
# T1 sequence 1: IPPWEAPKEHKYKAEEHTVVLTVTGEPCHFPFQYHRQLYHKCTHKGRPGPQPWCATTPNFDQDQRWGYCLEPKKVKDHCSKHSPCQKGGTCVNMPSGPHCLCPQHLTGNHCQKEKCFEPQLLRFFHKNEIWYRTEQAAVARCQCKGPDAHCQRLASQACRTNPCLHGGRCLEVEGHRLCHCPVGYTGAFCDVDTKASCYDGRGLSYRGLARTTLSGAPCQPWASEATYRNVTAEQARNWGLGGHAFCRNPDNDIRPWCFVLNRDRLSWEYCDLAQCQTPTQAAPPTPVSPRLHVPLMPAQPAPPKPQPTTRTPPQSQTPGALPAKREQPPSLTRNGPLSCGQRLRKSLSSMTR
# T1 sequence 2: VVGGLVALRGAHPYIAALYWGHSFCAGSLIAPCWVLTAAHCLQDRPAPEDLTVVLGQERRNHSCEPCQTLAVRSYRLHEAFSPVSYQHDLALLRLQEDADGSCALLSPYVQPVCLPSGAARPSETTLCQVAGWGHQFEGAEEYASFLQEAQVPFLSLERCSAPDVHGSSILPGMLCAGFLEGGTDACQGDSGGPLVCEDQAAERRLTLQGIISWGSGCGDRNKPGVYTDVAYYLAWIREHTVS
# [4] = molecular target: human thrombin (human, UniProt P00734); test: chromogenic enzyme inhibition assay, apparent Ki*
# [5] = molecular target: human activated protein C (human, UniProt P04070); test: chromogenic enzyme inhibition assay, apparent Ki*
# [6] = molecular target: human plasma kallikrein (human, UniProt P03952); test: chromogenic enzyme inhibition assay, apparent Ki* (value in FIG. 4)
# Procedure: (§1) Aliquots (25 μL) from each well of a microtiter plate containing the serially diluted inhibitors were transferred into new microtiter plates, each containing a different protease (100 μL) in the appropriate buffer. The proteases tested (protease concentration, buffer, substrate) were FVIIa (10 nM, Buffer A, 0.7 mM S2366), FXIa (1.0 nM, Buffer B containing 1 mg/ml BSA, 0.7 mM S2366), plasma kallikrein (3.5 nM, Buffer B, 0.5 mM S2302), and plasmin (15 nM, Buffer B, 1 mM S2251). Buffer A contains 50 mM Tris, pH 7.5, 100 mM NaCl, 10 mM CaCl_2, 0.5% BSA, 60 nM TF_1-243, and 1 mM CHAPS (Sigma). Buffer B contains 50 mM Tris, pH 7.5, 100 mM NaCl, 2 mM CaCl_2 and 0.005% Triton X-100.
# [7] = molecular target: human plasmin (human, UniProt P00747); test: chromogenic enzyme inhibition assay (plasmin 15 nM, S2251), apparent Ki*
# Procedure: as §1
Binder,"fold prolongation of clotting time, PT assay in normal human plasma [1]",binding result [3],binding result [5],other results
B1,1.4 fold prolongation at 40 µM inhibitor,–,–,–
B2,1.5 fold prolongation at 40 µM inhibitor,no binding (tested: >10 µM),no binding (tested: >10 µM),Ki [2]: > 10 µM; binding result [2]: no binding (tested: >10 µM); Ki [3]: > 10 µM; Ki [4]: > 10 µM; binding result [4]: no binding (tested: >10 µM); Ki [5]: > 10 µM
B3,–,no binding (tested: >10 µM),no binding (tested: >10 µM),binding result [6]: binds; Ki [7]: 0.04 µM
B4,2.5 fold prolongation at 40 µM inhibitor,–,–,–
B5,2.1 fold prolongation at 40 µM inhibitor,–,–,–

# — patent US5834244, “Factor VIIa inhibitors from Kunitz domain proteins” (Genentech, Inc., dated 1998)
